Results reported in the RNAGym collection of RNA variant scans (doi:10.1073/pnas.2313332121).

B1: TPR t1 (parent)
chain: GACCAAUCUGCCCUCAGAGCUCGAGAACAUCUUCGGAUGCAGAGGAGGCAGGCUUCGGUGGCGCGAUAGCGCCAACGUCCUCAACCUCCAAUGCAUCCCACCACAUGAUGAUGCCUGAAGAGCCUUGGUUUUUUG

Variants of: B1
Experiment: polymerase ribozyme fitness, log enrichment relative to wild type (log ratio); higher = more active; in vitro selection for triplet polymerase activity
Outline: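 The heterodimeric triplet polymerase ribozyme's subunits were each mutagenized into PCR-built libraries and transcribed. Every library was selected once, in triplicate, by annealing with a biotinylated primer, the partner subunit and triplets, incubating frozen at −7 °C, gel-excising extended constructs, capturing on streptavidin beads and running RT-PCR. Input and output libraries were Illumina-sequenced, with genotypes kept only at ≥10 input reads and ≥1 read per output. Fitness, from inverse-variance-weighted replicate averages, is the base-2 logarithm of genotype enrichment over wild-type enrichment.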
In the case of A6U A26U G36C G63C, the “polymerase ribozyme fitness (log ratio)” value is reported as -5.14. With C4U U38G U112A the “polymerase ribozyme fitness (log ratio)” value was -0.207. For A103U U130A, the “polymerase ribozyme fitness (log ratio)” value was -4.14. For C12A A100C A121C, the “polymerase ribozyme fitness (log ratio)” value was 1.43. With C12U C62U C80G U109G C114A the “polymerase ribozyme fitness (log ratio)” value was -6.17. With C22G U112G the “polymerase ribozyme fitness (log ratio)” value was -2.35. In the case of A43G U130C, the “polymerase ribozyme fitness (log ratio)” value is reported as -1.1. With C13G C72U A119U the “polymerase ribozyme fitness (log ratio)” value was 0.275. In the case of C22U C53A C72U C98U C123U, the “polymerase ribozyme fitness (log ratio)” value is reported as -4.73. For C20U C22A, the “polymerase ribozyme fitness (log ratio)” value was -3.94. In the case of G36U G45A A119U, the “polymerase ribozyme fitness (log ratio)” value is reported as -1.61. For G47U G52A A83C, the “polymerase ribozyme fitness (log ratio)” value was -2.36. In the case of U9A C11G G93U A100G, the “polymerase ribozyme fitness (log ratio)” value is reported as -5.7. In the case of A6U G48A A68G C123A, the “polymerase ribozyme fitness (log ratio)” value is reported as -2.21. With A41C A46G U109A the “polymerase ribozyme fitness (log ratio)” value was -7.53. With G48A C62U C115U the “polymerase ribozyme fitness (log ratio)” value was -3.7. For C13G A66U C114A, the “polymerase ribozyme fitness (log ratio)” value was -4.3. For C12U C53U C56U, the “polymerase ribozyme fitness (log ratio)” value was -0.154. For U9G G10U C104A, the “polymerase ribozyme fitness (log ratio)” value was -1.09. With C89U G113U the “polymerase ribozyme fitness (log ratio)” value was -3.66. For G93C G120A U130C, the “polymerase ribozyme fitness (log ratio)” value was 0.452. In the case of G45U U59A C101U, the “polymerase ribozyme fitness (log ratio)” value is reported as -0.987. With A37U A74U the “polymerase ribozyme fitness (log ratio)” value was -0.149. In the case of C73U G120C, the “polymerase ribozyme fitness (log ratio)” value is reported as 1.2. With C56G G61C A95G A111U the “polymerase ribozyme fitness (log ratio)” value was -6.34. For C72U C76A C88A U96A, the “polymerase ribozyme fitness (log ratio)” value was -3.05. With C8G G61A U87G C123A the “polymerase ribozyme fitness (log ratio)” value was 1.64. For U38A C102U, the “polymerase ribozyme fitness (log ratio)” value was -4.16. With C13U C62U the “polymerase ribozyme fitness (log ratio)” value was -0.0202. For C22G A90G, the “polymerase ribozyme fitness (log ratio)” value was -3.06. With C3U C11U the “polymerase ribozyme fitness (log ratio)” value was -0.785. With G35C G36A G51C C123G the “polymerase ribozyme fitness (log ratio)” value was -6.59. In the case of A37U U54A A84U, the “polymerase ribozyme fitness (log ratio)” value is reported as -0.554. In the case of U78C U81G G120C, the “polymerase ribozyme fitness (log ratio)” value is reported as -1.18. In the case of G47A G120C U130C, the “polymerase ribozyme fitness (log ratio)” value is reported as 0.162. With G51A G60U the “polymerase ribozyme fitness (log ratio)” value was -1.77. For C49U G61U U81A C115G, the “polymerase ribozyme fitness (log ratio)” value was -2.05. In the case of C94G G117A, the “polymerase ribozyme fitness (log ratio)” value is reported as -2.51. With C12U U59G the “polymerase ribozyme fitness (log ratio)” value was 0.247. For G39U C85G, the “polymerase ribozyme fitness (log ratio)” value was -2.87. For C8U U92A G93A, the “polymerase ribozyme fitness (log ratio)” value was -4.46. With C4A C72U U81A G117U G122A U132A the “polymerase ribozyme fitness (log ratio)” value was -6.42. In the case of C3U C56G A83U C85A, the “polymerase ribozyme fitness (log ratio)” value is reported as -3.16. With G17A C56A the “polymerase ribozyme fitness (log ratio)” value was -2.66. In the case of G42U A50C, the “polymerase ribozyme fitness (log ratio)” value is reported as -1.99. For C72U A91U, the “polymerase ribozyme fitness (log ratio)” value was -1.73. In the case of C12A G19U G57U, the “polymerase ribozyme fitness (log ratio)” value is reported as -3.2. In the case of U14G A43G G52A C53A G77C A100U, the “polymerase ribozyme fitness (log ratio)” value is reported as -5.52. In the case of C11A G48U G60U C123A, the “polymerase ribozyme fitness (log ratio)” value is reported as 0.672. For C70G C73U, the “polymerase ribozyme fitness (log ratio)” value was -2.63. In the case of C12U C62G, the “polymerase ribozyme fitness (log ratio)” value is reported as -1.57. In the case of U32A U59C, the “polymerase ribozyme fitness (log ratio)” value is reported as -3.8. For U55A G69C C104U C115A, the “polymerase ribozyme fitness (log ratio)” value was -0.166. For G52A A118G, the “polymerase ribozyme fitness (log ratio)” value was -0.546. With A74G C94U the “polymerase ribozyme fitness (log ratio)” value was 0.88. With G52A G122A C124U the “polymerase ribozyme fitness (log ratio)” value was 0.227. For A91G G113U, the “polymerase ribozyme fitness (log ratio)” value was -3.39. In the case of C15A U133C, the “polymerase ribozyme fitness (log ratio)” value is reported as -1.06. In the case of G42U C49G U112A, the “polymerase ribozyme fitness (log ratio)” value is reported as -0.357. With G36A G61U C72G G77A C82A C98U the “polymerase ribozyme fitness (log ratio)” value was -6. For A5U G47A, the “polymerase ribozyme fitness (log ratio)” value was -1.21. With U78G A111U U131A the “polymerase ribozyme fitness (log ratio)” value was -2.99. In the case of C12A G61C, the “polymerase ribozyme fitness (log ratio)” value is reported as -2.46. In the case of G44A A105G, the “polymerase ribozyme fitness (log ratio)” value is reported as -4.47. With A50U C124A the “polymerase ribozyme fitness (log ratio)” value was 0.575. In the case of A18G A46G C72U, the “polymerase ribozyme fitness (log ratio)” value is reported as -4.38. For C11G C13G A18U C49G, the “polymerase ribozyme fitness (log ratio)” value was -3.53. With C8U U32A G60C C97A C99A G122U the “polymerase ribozyme fitness (log ratio)” value was -5.09. With A50C C62A U106A A111G C114U C123A the “polymerase ribozyme fitness (log ratio)” value was -5.42. For C12A G17U C20A G42A G45U A90G C123A, the “polymerase ribozyme fitness (log ratio)” value was -4.53. With G93A C104U the “polymerase ribozyme fitness (log ratio)” value was -0.0844. With A37C C56G G58A G63C G77C the “polymerase ribozyme fitness (log ratio)” value was -3.59. With A43C A46G the “polymerase ribozyme fitness (log ratio)” value was -1.62. For A24C G120A, the “polymerase ribozyme fitness (log ratio)” value was -4.02. For U7G C15A U38C C40G A41U G48U G69A C89A U96G C98U A111G, the “polymerase ribozyme fitness (log ratio)” value was -7.66. For U32G A37U C73U G113A, the “polymerase ribozyme fitness (log ratio)” value was -6.09. For U78C C124G, the “polymerase ribozyme fitness (log ratio)” value was 1.08. With U9G C20U U87G the “polymerase ribozyme fitness (log ratio)” value was -0.825. With A68U A90G C101G G113A G117C the “polymerase ribozyme fitness (log ratio)” value was -5.75. With A50C G57U G113U the “polymerase ribozyme fitness (log ratio)” value was -4.25. For C13G A16U C49A G63A, the “polymerase ribozyme fitness (log ratio)” value was -3.65. For U32C G42C C123G, the “polymerase ribozyme fitness (log ratio)” value was 1.74. With A37C G63C A74C the “polymerase ribozyme fitness (log ratio)” value was -3.35. With G42U G52A A75G C101U the “polymerase ribozyme fitness (log ratio)” value was -0.635.
